Experimental data as given in publication PMC8807725, “EPHA2 mediates PDGFA activity and functions together with PDGFRA as prognostic marker and therapeutic target in glioblastoma” (Signal Transduction and Targeted Therapy, 2022).

Target: T1, recombinant human PDGF-AA (human, UniProt P04085 87-211)
T1 construct: Platelet-derived growth factor subunit A (PDGFA), human, recombinant homodimer PDGF-AA; Added to cells at 100 ng/ml; Commercial PDGF-AA is normally the mature chain; also called recombinant human PDGFA homodimer; source: recombinant human protein
Experiment: ITC; Microcal iTC200; recombinant human receptor extracellular domain and recombinant human PDGF-AA
Settings: both partners purified

B1: recombinant human PDGFRA extracellular domain fused with IgG Fc (rhRA-ECD-Fc) (Fc fusion, UniProt P16234 24-528, looked up)
chain: QLSLPSILPNENEKVVQLNSSFSLRCFGESEVSWQYPMSEEESSDVEIRNEENNSGLFVTVLEVSSASAAHTGLYTCYYNHTQTEENELEGRHIYIYVPDPDVAFVPLGMTDYLVIVEDDDSAIIPCRTTDPETPVTLHNSEGVVPASYDSRQGFNGTFTVGPYICEATVKGKKFQTIPFNVYALKATSELDLEMEALKTVYKSGETIVVTCAVFNNEVVDLQWTYPGEVKGKGITMLEEIKVPSIKLVYTLTVPEATVKDSGDYECAARQATREVKEMKKVTISVHEKGFIEIKPTFSQLEAVNLHEVKHFVVEVRAYPPPRISWLKNNLTLIENLTEITTDVEKIQEIRYRSKLKLIRAKEEDSGHYTIVAQNEDAVKSYTFELLTQVPSSILDLVDDHHGSTGGQTVRCTAEGTPLPDIEWMICKDIKKCNNETSWTILANNVSNIITEIHSRDRSTVEGRVTFAKVEETIAVRCLAKNLLGAENRELKLVAPTLRSELTVA
notes: Platelet-derived growth factor receptor alpha (PDGFRA), human, extracellular domain; Species and subclass of the IgG Fc, construct limits and supplier are not in the main text; also called recombinant PDGFRA extracellular domain; source: recombinant human protein
  dH: -1070 ± 117
